Experimental data published in article PMC3343102, “Dynamics of Brassinosteroid Response Modulated by Negative Regulator LIC in Rice”.

T1: MBP-OsBZR1 (Oryza sativa, UniProt Q7XI96 1-298)
T1 sequence: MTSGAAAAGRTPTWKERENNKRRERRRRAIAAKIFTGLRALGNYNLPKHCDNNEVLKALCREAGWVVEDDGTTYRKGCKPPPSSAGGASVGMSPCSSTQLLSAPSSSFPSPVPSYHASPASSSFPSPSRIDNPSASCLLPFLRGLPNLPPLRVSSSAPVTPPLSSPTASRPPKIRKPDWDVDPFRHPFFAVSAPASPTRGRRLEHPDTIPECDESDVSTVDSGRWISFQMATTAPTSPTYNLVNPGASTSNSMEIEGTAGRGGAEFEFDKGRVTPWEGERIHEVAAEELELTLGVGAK


Molecular target: T1, MBP-OsBZR1
Assay: EMSA; EMSA, 20 uL: 2 ug protein; 2 uL 10x buffer (100 mM Tris, 500 mM KCl, 10 mM DTT, pH 7.5), 1 uL each of 50% glycerol, 1% NP-40, 1 M KCl, 100 mM MgCl2, 200 mM EDTA, 1 ug/uL poly(dI-dC); i.e. about 10 mM Tris, 100 mM KCl, 5 mM MgCl2, 10 mM EDTA; 25 C, 20 min; 10% native PAGE
Conditions: protein: recombinant; tags: MBP (N-terminal fusion, pETMALc-H); chain copies: 2; label: biotin 3' end; blunt

Binder	binding result
MP1 (P1 with CGTGCG to CGAAAA) (dsDNA) DNA 1: CGACGTCGAAAAGCCGCG DNA 2: CGCGGCTTTTCGACGTCG	no binding
LIC promoter P1 (dsDNA) DNA 1: CGACGTCGTGCGGCCGCG DNA 2: CGCGGCCGCACGACGTCG	binds
LIC promoter P2 (dsDNA) DNA 1: CGGGCGCGTGTGTGGCGG DNA 2: CCGCCACACACGCGCCCG	no binding
